Here are results for 13 variants from IntAct's records for PubMed 18256029.

The labels stand for the following.
B1: Programmed cell death protein 6 (Homo sapiens), O75340 (parent)
chain: MAAYSYRPGPGAGPGPAAGAALPDQSFLWNVFQRVDKDRSGVISDTELQQALSNGTWTPFNPVTVRSIISMFDRENKAGVNFSEFTGVWKYITDWQNVFRTYDRDNSGMIDKNELKQALSGFGYRLSDQFHDILIRKFDRQGRGQIAFDDFIQGCIVLQRLTDIFRRYDTDQDGWIQVSYEQYLSMVFSIV
partner: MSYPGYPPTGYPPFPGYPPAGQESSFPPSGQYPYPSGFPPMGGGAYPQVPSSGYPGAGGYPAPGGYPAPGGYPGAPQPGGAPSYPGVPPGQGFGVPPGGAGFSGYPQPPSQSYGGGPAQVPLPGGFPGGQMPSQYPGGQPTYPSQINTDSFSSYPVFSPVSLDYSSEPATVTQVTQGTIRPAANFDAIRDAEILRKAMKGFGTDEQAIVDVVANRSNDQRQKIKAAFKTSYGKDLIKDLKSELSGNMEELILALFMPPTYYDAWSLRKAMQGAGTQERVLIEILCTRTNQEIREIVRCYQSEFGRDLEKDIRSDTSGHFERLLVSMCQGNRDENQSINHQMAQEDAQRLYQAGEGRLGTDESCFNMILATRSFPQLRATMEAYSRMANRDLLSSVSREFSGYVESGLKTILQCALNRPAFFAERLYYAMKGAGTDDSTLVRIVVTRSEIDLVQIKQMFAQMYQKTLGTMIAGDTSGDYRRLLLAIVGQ
B2: Programmed cell death protein 6 (Homo sapiens), O75340 (parent)
chain: B1 chain
partner: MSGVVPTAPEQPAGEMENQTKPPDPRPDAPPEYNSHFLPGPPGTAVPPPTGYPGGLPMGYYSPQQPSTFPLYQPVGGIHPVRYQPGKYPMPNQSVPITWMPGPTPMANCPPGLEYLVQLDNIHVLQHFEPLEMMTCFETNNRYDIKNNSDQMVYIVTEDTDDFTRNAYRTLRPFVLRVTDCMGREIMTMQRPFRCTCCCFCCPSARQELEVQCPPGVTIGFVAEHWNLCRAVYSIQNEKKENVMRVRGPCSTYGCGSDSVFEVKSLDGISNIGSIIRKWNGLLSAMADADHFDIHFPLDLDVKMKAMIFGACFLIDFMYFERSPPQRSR
B3: Programmed cell death protein 6 (Homo sapiens), O75340 (parent)
chain: B1 chain
partner: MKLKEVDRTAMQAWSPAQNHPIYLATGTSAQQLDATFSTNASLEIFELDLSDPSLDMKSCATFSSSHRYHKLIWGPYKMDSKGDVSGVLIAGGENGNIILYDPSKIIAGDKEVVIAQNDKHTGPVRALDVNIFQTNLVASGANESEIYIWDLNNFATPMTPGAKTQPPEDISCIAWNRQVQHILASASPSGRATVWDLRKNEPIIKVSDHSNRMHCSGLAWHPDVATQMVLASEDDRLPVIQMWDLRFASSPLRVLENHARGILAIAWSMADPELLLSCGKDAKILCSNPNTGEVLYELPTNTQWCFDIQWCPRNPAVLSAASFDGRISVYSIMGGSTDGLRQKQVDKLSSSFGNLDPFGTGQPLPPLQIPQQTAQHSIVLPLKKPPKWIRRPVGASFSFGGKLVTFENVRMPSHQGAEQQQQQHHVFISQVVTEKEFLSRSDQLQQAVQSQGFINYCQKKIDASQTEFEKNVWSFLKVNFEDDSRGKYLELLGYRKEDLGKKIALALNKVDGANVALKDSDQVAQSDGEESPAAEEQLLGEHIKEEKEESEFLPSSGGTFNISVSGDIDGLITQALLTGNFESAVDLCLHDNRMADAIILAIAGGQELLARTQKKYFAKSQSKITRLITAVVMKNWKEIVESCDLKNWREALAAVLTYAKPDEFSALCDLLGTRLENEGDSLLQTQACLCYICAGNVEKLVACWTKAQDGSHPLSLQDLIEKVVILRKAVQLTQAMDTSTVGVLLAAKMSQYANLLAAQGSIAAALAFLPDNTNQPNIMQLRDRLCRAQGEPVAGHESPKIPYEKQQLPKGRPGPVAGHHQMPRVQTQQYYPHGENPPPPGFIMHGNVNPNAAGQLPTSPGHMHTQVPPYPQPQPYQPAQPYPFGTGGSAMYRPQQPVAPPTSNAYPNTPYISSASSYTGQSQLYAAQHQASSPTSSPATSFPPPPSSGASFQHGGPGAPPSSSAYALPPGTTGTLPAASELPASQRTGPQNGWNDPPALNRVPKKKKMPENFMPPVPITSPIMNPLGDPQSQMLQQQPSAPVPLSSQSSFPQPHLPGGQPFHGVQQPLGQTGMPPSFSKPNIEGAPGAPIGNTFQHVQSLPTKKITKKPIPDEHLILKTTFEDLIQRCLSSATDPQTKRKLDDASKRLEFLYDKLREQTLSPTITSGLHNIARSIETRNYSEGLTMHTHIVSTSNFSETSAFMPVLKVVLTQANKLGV
B4: Programmed cell death protein 6 (Homo sapiens), O75340 (parent)
chain: B1 chain

Variants of B1 are the subject of the first experiment. Particulars: with anxa7_human ANXA7, P20073.
Take F60A: the “effect of a mutation on the interaction” value was “disrupting interaction”. Still for that read-out and setting: with W95A the entry was “disrupting interaction”; with W57A, “decreasing interaction”. For the variant Y180A, the “effect of a mutation on the interaction” value was “disrupting interaction”.

On to Y91A, for which the “effect of a mutation on the interaction” value was “disrupting interaction”.

Variants of B2 are the subject of a further experiment. Particulars: with pls4_human PLSCR4, Q9NRQ2.
As to E47A;E114A, the “effect of a mutation on the interaction” value is given as “decreasing interaction”.

Variants of B3 are the subject of a further experiment. Particulars: with sc31a_human SEC31A.
For F60A, the “effect of a mutation on the interaction” value is recorded as “disrupting interaction”.

Variants of B4 are the subject of another experiment. Conditions: with pls3_human PLSCR3, Q9NRY6.
Sequence of pls3_human PLSCR3, Q9NRY6 (Q9NRY6 whole entry): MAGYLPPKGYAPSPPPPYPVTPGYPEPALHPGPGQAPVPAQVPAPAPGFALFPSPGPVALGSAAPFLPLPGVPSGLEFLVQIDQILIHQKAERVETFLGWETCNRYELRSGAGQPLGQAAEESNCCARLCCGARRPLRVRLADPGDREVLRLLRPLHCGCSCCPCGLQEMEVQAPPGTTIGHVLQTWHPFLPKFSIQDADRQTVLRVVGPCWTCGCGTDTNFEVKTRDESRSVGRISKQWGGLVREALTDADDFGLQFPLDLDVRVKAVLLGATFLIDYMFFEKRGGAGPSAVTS
In the case of Y180A, the “effect of a mutation on the interaction” value was “disrupting interaction”. The same measure, in the same setting: with Y91A the entry was “disrupting interaction”. Still for that read-out and setting: with W95A the entry was “disrupting interaction”. Consider F60A, for which the “effect of a mutation on the interaction” value was “disrupting interaction”. W57A: the “effect of a mutation on the interaction” value is “decreasing interaction”.

The next experiment covers variants of B4. Particulars: with pdc6i_human PDCD6IP.
Take Y180A: the “effect of a mutation on the interaction” value is given as “disrupting interaction”. On to Y91A, for which the “effect of a mutation on the interaction” value is “disrupting interaction”. In the case of W95A, the “effect of a mutation on the interaction” value is listed as “disrupting interaction”. Consider F60A, for which the “effect of a mutation on the interaction” value was “disrupting interaction”. In the case of W57A, the “effect of a mutation on the interaction” value was “decreasing interaction”.

Variants of B4 are the subject of another experiment. Particulars: with anx11_human ANXA11, P50995.
Sequence of anx11_human ANXA11, P50995 (P50995 whole entry): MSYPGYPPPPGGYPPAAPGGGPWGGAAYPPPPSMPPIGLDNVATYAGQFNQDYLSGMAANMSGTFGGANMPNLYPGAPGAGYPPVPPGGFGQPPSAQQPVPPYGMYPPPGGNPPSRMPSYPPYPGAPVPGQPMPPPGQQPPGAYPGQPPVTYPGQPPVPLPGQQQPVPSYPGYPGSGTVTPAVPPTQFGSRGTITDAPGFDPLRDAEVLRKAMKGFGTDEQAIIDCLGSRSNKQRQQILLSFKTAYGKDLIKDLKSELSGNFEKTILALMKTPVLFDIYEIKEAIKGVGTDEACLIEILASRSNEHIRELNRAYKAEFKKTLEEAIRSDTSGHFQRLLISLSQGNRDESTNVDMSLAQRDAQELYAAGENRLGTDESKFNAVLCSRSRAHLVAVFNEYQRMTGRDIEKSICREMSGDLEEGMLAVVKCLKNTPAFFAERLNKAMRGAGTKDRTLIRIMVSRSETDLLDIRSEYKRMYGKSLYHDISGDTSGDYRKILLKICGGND
For the variant Y180A, the “effect of a mutation on the interaction” value was “disrupting interaction”.

For the variant Y91A, the “effect of a mutation on the interaction” value is given as “disrupting interaction”. As to W95A, the “effect of a mutation on the interaction” value was “disrupting interaction”. For F60A, the “effect of a mutation on the interaction” value was “disrupting interaction”. For the variant W57A, the “effect of a mutation on the interaction” value is given as “decreasing interaction”.

In the next experiment the parent is B4. Conditions: with ts101_human TSG101, Q99816.
Sequence of ts101_human TSG101, Q99816 (Q99816 whole entry): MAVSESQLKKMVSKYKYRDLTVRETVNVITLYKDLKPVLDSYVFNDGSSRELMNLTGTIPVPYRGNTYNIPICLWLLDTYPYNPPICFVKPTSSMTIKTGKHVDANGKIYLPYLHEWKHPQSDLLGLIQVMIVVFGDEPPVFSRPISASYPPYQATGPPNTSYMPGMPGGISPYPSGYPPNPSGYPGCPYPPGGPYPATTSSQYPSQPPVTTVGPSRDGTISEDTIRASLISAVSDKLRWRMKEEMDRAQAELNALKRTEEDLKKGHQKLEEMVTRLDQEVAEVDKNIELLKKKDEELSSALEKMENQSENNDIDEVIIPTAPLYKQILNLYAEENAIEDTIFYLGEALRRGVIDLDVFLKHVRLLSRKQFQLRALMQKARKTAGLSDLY
For the variant Y180A, the “effect of a mutation on the interaction” value is “disrupting interaction”. Same read-out and setting: then W95A, with “disrupting interaction”.

The variants in the next experiment derive from B4. Particulars: with pls3_human PLSCR3, Q9NRY6. The source holds these as a separate data set.
As to E47A;E114A, the “effect of a mutation on the interaction” value is “decreasing interaction”.
